This note sets out measurements from paper doi:10.1101/2025.09.05.674523 (bioRxiv, 2025).

Common to all, as to experiment: AlphaScreen or HTRF
For test [1], the target named is full-length recombinant mouse EPPIN (mEPPIN; L24-T134) (mouse) (UniProt Q9DA01).
The next test has as its target mEPPIN^L24-K68 (mouse) (UniProt Q9DA01).
The target of test [2] is T1, full-length recombinant mouse EPPIN (mEPPIN; L24-T134) (mouse, UniProt Q9DA01 24-134).
T1 sequence (looked up): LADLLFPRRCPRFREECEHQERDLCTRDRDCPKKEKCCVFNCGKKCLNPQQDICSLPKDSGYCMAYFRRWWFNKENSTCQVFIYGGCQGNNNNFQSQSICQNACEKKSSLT

Test [3] has as its target full-length recombinant mouse SEMG1 (mSEMG1; Q32-G375) (mouse).

Consider “full-length recombinant mouse SEMG1 (mSEMG1; Q32-G375) (natural protein)”, for which the EC50 (commonly the concentration giving half of the maximal effect) in test [1] worked out at 23.6 nM. Further, in the test with mEPPIN^L24-K68 (mouse), the reduction in the specific signal compared to full-length EPPIN was 75%.

B1: recombinant human SEMG1 (hSEMG1, G26-R281) (domain or fragment, UniProt P04279 26-281, looked up)
chain: GGSKGRLPSEFSQFPHGQKGQHYSGQKGKQQTESKGSFSIQYTYHVDANDHDQSRKSQQYDLNALHKTTKSQRHLGGSQQLLHNKQEGRDHDKSKGHFHRVVIHHKGGKAHRGTQNPSQDQGNSPSGKGISSQYSNTEERLWVHGLSKEQTSVSGAQKGRKQGGSQSSYVLQTEELVANKQQRETKNSHQNKGHYQNVVEVREEHSSKVQTSLCPAHQDKLQHGSKDIFSTQDELLVYNKNQHQTKNLNQDQQHGR
Turning to B1, in test [2], the concentration for a half-maximal effect (EC50) is 8.3 nM.

B2: full-length recombinant mouse EPPIN (mEPPIN; L24-T134) (natural protein)
chain: LADLLFPRRCPRFREECEHQERDLCTRDRDCPKKEKCCVFNCGKKCLNPQQDICSLPKDSGYCMAYFRRWWFNKENSTCQVFIYGGCQGNNNNFQSQSICQNACEKKSSLT
Regarding B2, in test [3], the EC50 was 1 nM.
